Assay results reported in publication PMC5473643, “A semisynthetic Atg3 reveals that acetylation promotes Atg3 membrane binding and Atg8 lipidation” (Nature Communications, 2017).
Positions count from the first letter of the chain named.

Legend:
Conditions in all cases: both partners purified
[1] = target: T1, WT Atg3 (bacterially expressed and purified) (Saccharomyces cerevisiae, UniProt P40344 1-310); assay: SPR; Biacore T200, 25 °C; Atg3 immobilised by amine coupling on CM5 chip (400 RU); Atg8 injected at 30 μl/min up to 3,200 nM; 10 mM phosphate buffer, 2.7 mM KCl, 137 mM NaCl, 0.05% surfactant P20, pH 7.4
T1 construct: Atg3, E2-like enzyme of yeast Saccharomyces cerevisiae (310 amino acids); 'the region coding WT Atg3' inserted into pGEX-6P-1; GST excised with PreScission protease; residues of the vector may remain at the N-terminus (surmised); also called Atg3 WT; E. coli expressed WT Atg3; source: E. coli BL21 (DE3), purified (glutathione-Sepharose 4B, PreScission protease, Mono Q, Superdex 200)
T1 sequence (looked up): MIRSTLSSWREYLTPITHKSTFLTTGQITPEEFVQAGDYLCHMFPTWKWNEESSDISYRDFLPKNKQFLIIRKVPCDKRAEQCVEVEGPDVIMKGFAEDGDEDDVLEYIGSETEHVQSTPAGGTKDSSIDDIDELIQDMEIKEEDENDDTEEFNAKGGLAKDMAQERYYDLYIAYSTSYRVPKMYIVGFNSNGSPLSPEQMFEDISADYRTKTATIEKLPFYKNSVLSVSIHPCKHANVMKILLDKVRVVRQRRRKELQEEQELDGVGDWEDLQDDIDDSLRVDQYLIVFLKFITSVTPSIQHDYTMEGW

[2] = target: T2, semi-synthetic Atg3 K19ac-K48ac (Saccharomyces cerevisiae, UniProt P40344 1-310, Gln27 mutated to Cys27 | S54C, acetyl-lysine at K19 and K48); assay: as above
T2 construct: Atg3 of yeast Saccharomyces cerevisiae, Atg3(1-310), 310 amino acids, with Gln27 and Ser54 mutated to Cys for ligation; also called K19/K48-diacetylated Atg3; 2ac
T2 sequence (looked up): T1 sequence (looked up) with Q27C, S54C

[3] = target: T1, WT Atg3 (bacterially expressed and …); assay: MST; Monolith NT.115 (20% LED, 20% MST power); Atg8 labelled with Dye NT-647 NHS, Atg3 at different concentrations; 50 mM Tris-HCl pH 7.4, 150 mM NaCl, 10 mM MgCl2, 0.05% Tween-20; apparent KD, mean of three independent experiments
[4] = target: T2, semi-synthetic Atg3 K19ac-K48ac; assay: as above

Kd [1]: 730 ± 50 nM
Kd [2]: 650 ± 70 nM
Kd [3]: 520 ± 70 nM
Kd [4]: 490 ± 80 nM
B1: Atg8 (bacterially expressed and purified) (natural protein, yeast, UniProt P38182 1-117, looked up)
chain: MKSTFKSEYPFEKRKAESERIADRFKNRIPVICEKAEKSDIPEIDKRKYLVPADLTVGQFVYVIRKRIMLPPEKAIFIFVNDTLPPTAALMSAIYQEHKDKDGFLYVTYSGENTFGR
notes: Atg8 of yeast; 'the region coding ; Atg8' inserted into pGEX-6P-1; In the MST experiment this Atg8 was labelled on primary amines with Dye NT-647 NHS; also called recombinant Atg8; purified Atg8; source: E. coli BL21 (DE3), purified (glutathione-Sepharose 4B, PreScission protease, Mono Q, Superdex 200)
